Results taken from publication PMC8624677 (The Journal of Cell Biology, 2021).

B1: cyt-ATL2 H462C (also C59A, C143A, C395N, and C441A) (domain or fragment, human, UniProt Q8NHH9 1-467, looked up)
chain: MAEGDEAARGQQPHQGLWRRRRTSDPSAAVNHVSSTTSLGENYEDDDLVNSDEVMKKPAPVQIVLAHEDDHNFELDEEALEQILLQEHIRDLNIVVVSVAGAFRKGKSFLLDFMLRYMYNKDSQSWIGGNNEPLTGFTWRGGAERETTGIQVWNEVFVIDRPNGTKVAVLLMDTQGAFDSQSTIKDCATVFALSTMTSSVQVYNLSQNIQEDDLQHLQLFTEYGRLAMEEIYQKPFQTLMFLIRDWSYPYEHSYGLEGGKQFLEKRLQVKQNQHEELQNVRKHIHNCFSNLGCFLLPHPGLKVATNPSFDGRLKDIDEDFKRELRNLVPLLLAPENLVEKEISGSKVTCRDLVEYFKAYIKIYQGEELPHPKSMLQATAEANNLAAVAGARDTYNKSMEQVCGGDKPYIAPSDLERKHLDLKEVAIKQFRSVKKMGGDEFARRYQDQLEAEIEETYANFIKCNDGKN
modifications: Cy3 maleimide on the engineered 3HB cysteine H462C
B2: cyt-ATL1 H435C (domain or fragment, human, UniProt Q8WXF7 1-446, looked up)
chain: MAKNRRDRNSWGGFSEKTYEWSSEEEEPVKKAGPVQVLIVKDDHSFELDETALNRILLSEAVRDKEVVAVSVAGAFRKGKSFLMDFMLRYMYNQESVDWVGDYNEPLTGFSWRGGSERETTGIQIWSEIFLINKPDGKKVAVLLMDTQGTFDSQSTLRDSATVFALSTMISSIQVYNLSQNVQEDDLQHLQLFTEYGRLAMEETFLKPFQSLIFLVRDWSFPYEFSYGADGGAKFLEKRLKVSGNQHEELQNVRKHIHSCFTNISCFLLPHPGLKVATNPNFDGKLKEIDDEFIKNLKILIPWLLSPESLDIKEINGNKITCRGLVEYFKAYIKIYQGEELPHPKSMLQATAEANNLAAVATAKDTYNKKMEEICGGDKPFLAPNDLQTKHLQLKEESVKLFRGVKKMGGEEFSRRYLQQLESEIDELYIQYIKCNDSKNIFHAAR
modifications: Cy3 maleimide on the engineered 3HB cysteine H435C
B3: cyt-DATL H410C (domain or fragment)
chain: MGGSAVQVINASEEHTFVLNEDALSEVLMRDEVKDRFVCVVSVAGAFRKGKSFLLDFFLRYMYSKYVHHDATDWLGGESDPLEGFSWRGGSERDTTGILMWSDIFLHDYPNGDKIAIILLDTQGAFDSQSTVRDCATVFALSTMLSSVQIYNLSQNIQEDDLQHLQLFTEYGRLALADTGKKPFQRLQFLVRDWSFPYEAEYGALGGDKILKRRLEVSDKQHPELQSLRRHISSCFTEVACFLMPHPGLNVATNPKFDGRLQDITPEFKSSLRSLVPMLLAPDNLVYKEISGQRVRARDLIQYFQSYMNIYKGNELPEPKSMLVATAEANHLTAVAAAKELYGQLMEEVCGGTRPYLSTAHLQTEHLRVKDKALFQFAAKRKMGGEEFTEKFRKQLEDDLEEVFTNYQACNESKN
modifications: Cy3 maleimide on the engineered 3HB cysteine H410C
B4: cyt-ATL2(1–467) S308C (also C59A, C143A, C395N, and C441A) (domain or fragment, human, UniProt Q8NHH9 1-467, looked up)
chain: MAEGDEAARGQQPHQGLWRRRRTSDPSAAVNHVSSTTSLGENYEDDDLVNSDEVMKKPAPVQIVLAHEDDHNFELDEEALEQILLQEHIRDLNIVVVSVAGAFRKGKSFLLDFMLRYMYNKDSQSWIGGNNEPLTGFTWRGGAERETTGIQVWNEVFVIDRPNGTKVAVLLMDTQGAFDSQSTIKDCATVFALSTMTSSVQVYNLSQNIQEDDLQHLQLFTEYGRLAMEEIYQKPFQTLMFLIRDWSYPYEHSYGLEGGKQFLEKRLQVKQNQHEELQNVRKHIHNCFSNLGCFLLPHPGLKVATNPCFDGRLKDIDEDFKRELRNLVPLLLAPENLVEKEISGSKVTCRDLVEYFKAYIKIYQGEELPHPKSMLQATAEANNLAAVAGARDTYNKSMEQVCGGDKPYIAPSDLERKHLDLKEVAIKQFRSVKKMGGDEFARRYQDQLEAEIEETYANFIKHNDGKN
modifications: Alexa Fluor 488 (donor) or 647 (acceptor) maleimide on the engineered G-domain cysteine S308C
B5: cyt-ATL1(1–446) N281C (domain or fragment, human, UniProt Q8WXF7 1-446, looked up)
chain: MAKNRRDRNSWGGFSEKTYEWSSEEEEPVKKAGPVQVLIVKDDHSFELDETALNRILLSEAVRDKEVVAVSVAGAFRKGKSFLMDFMLRYMYNQESVDWVGDYNEPLTGFSWRGGSERETTGIQIWSEIFLINKPDGKKVAVLLMDTQGTFDSQSTLRDSATVFALSTMISSIQVYNLSQNVQEDDLQHLQLFTEYGRLAMEETFLKPFQSLIFLVRDWSFPYEFSYGADGGAKFLEKRLKVSGNQHEELQNVRKHIHSCFTNISCFLLPHPGLKVATNPCFDGKLKEIDDEFIKNLKILIPWLLSPESLDIKEINGNKITCRGLVEYFKAYIKIYQGEELPHPKSMLQATAEANNLAAVATAKDTYNKKMEEICGGDKPFLAPNDLQTKHLQLKEESVKLFRGVKKMGGEEFSRRYLQQLESEIDELYIQYIKHNDSKNIFHAAR
modifications: Alexa Fluor 488 (donor) or 647 (acceptor) maleimide on the engineered G-domain cysteine N281C
B6: cyt-DATL(1–415) S270C (domain or fragment)
chain: MGGSAVQVINASEEHTFVLNEDALSEVLMRDEVKDRFVCVVSVAGAFRKGKSFLLDFFLRYMYSKYVHHDATDWLGGESDPLEGFSWRGGSERDTTGILMWSDIFLHDYPNGDKIAIILLDTQGAFDSQSTVRDCATVFALSTMLSSVQIYNLSQNIQEDDLQHLQLFTEYGRLALADTGKKPFQRLQFLVRDWSFPYEAEYGALGGDKILKRRLEVSDKQHPELQSLRRHISSCFTEVACFLMPHPGLNVATNPKFDGRLQDITPEFKCSLRSLVPMLLAPDNLVYKEISGQRVRARDLIQYFQSYMNIYKGNELPEPKSMLVATAEANHLTAVAAAKELYGQLMEEVCGGTRPYLSTAHLQTEHLRVKDKALFQFAAKRKMGGEEFTEKFRKQLEDDLEEVFTNYQAHNESKN
modifications: Alexa Fluor 488 (donor) or 647 (acceptor) maleimide on the engineered G-domain cysteine S270C

Target: the molecule itself
Experiment: PIFE

Binding result, binds:
B1, B2, B3

Target: the molecule itself
Experiment: FRET or BRET

Binding result, binds:
B4, B5, B6
